Reference: patent US20240052064A1 (Bristol-Myers Squibb, published 2024)

T1: BCMA (human, UniProt Q02223 1-54, limits assumed)
T1 construct: also called B cell maturation antigen; TNFRSF17
T1 sequence (looked up): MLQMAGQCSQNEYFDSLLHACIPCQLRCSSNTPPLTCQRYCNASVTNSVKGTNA

T2: BCMA on cells (JEKO cells, plasmablasts) (human, UniProt Q02223 1-184)
T2 sequence (looked up): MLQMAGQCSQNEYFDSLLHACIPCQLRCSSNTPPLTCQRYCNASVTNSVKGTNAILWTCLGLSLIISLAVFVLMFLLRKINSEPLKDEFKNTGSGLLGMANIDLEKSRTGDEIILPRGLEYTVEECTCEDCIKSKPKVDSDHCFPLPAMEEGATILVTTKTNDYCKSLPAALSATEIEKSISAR

T3: Human BCMA, TPP208 (human, UniProt Q02223 1-54, limits assumed)
T3 construct: also called Antigen 1
T3 sequence (looked up): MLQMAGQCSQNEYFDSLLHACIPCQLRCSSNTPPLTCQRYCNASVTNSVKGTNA


Legend:
BCMA = molecular target: T1, BCMA
[1] = molecular target: T2, BCMA on cells (JEKO cells, plasmablasts); experiment: cell-based or functional assay
[2] = molecular target: T2, BCMA on cells (JEKO cells, plasmablasts); experiment: cell-based or functional assay; remark: listed apart in the source
[3] = molecular target: T2, BCMA on cells (JEKO cells, plasmablasts); experiment: cell-based or functional assay; remark: listed apart in the source
Human BCMA, TPP208 [4] = molecular target: T3, Human BCMA, TPP208; experiment: SPR (Biacore T200), single-cycle kinetics, antibody captured on anti-human IgG, antigen injected; sensorgram of sample stored at pH 4, 40 C compared with the non-stressed standard
Experimental: (§1) SPR experiments were performed using a Biacore T200 system (GE Healthcare, Uppsala, Sweden) with analysis and sample compartment temperatures set at 25° C. and 7° C. respectively.
(§2) Anti-Human IgG (from anti-human IgG Capture Kit) was amine coupled to the surface of a CM5 chip according to the manufacturer's instructions. Molecule bispecific antibodies diluted to 1 μg/mL in running buffer were captured on the chip surface in a 60 s injection. Following the single-cycle kinetics procedure, antigen was next injected five times (30 s per injection) at incrementally increasing concentrations at a flow rate of 30 μL/min. Antigen concentrations ranged from 0.08 to 50 nM for BCMA and between 12.7 to 1000 nM for CD3. A 300 s dissociation time was added after the last antigen injection. Following each experiment, all flow cells were regenerated using a 30 s injection of 3M MgCl₂.
(§3) Prior to analysis, data were double referenced by first subtracting data from a reference flow cell and then subtracting a blank cycle where buffer was injected instead of antigen. The sensorgram comparison analysis was implemented using a Biacore T200 (software version 3.0). All data were normalized with respect to the response where 100% reflects the maximum binding obtained during injection and 0% reflects the baseline. Average and ±3 standard deviation (SD) sensorgrams were calculated from ten or more independent sensorgrams of each molecule's non-stressed material (standard). For quantitation of binding similarities of the stressed samples against the corresponding non-stressed standard, sample sensorgrams were co-evaluated with the sensorgrams of the standard. The degree of similarity was calculated based on how many sample data points fell inside or outside the ±3 standard deviation limits according to Equation 2, where SSQ is the sum of squares (Karlsson, R, Pol, E., and Frostell, A. (2016); Analytical Biochemistry 502, 53-63).

Human CD3ED, TPP401 [5] = molecular target: T4, Human CD3ED, TPP401 (human, UniProt P07766 23-126; P04234 22-105); experiment: as above
T4 construct: 'CD3ED' is read here as the CD3 epsilon/delta pair; also called Antigen 2
T4 sequence (P07766 23-126, chain 1 of 2): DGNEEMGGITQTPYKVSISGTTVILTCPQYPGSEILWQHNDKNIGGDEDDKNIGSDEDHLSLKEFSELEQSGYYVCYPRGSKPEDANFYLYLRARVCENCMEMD
T4 sequence (P04234 22-105, chain 2 of 2): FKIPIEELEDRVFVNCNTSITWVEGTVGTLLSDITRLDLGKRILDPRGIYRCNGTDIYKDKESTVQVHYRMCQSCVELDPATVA
Experimental: as §1, §2, §3

Human BCMA, TPP208 [6] = molecular target: T3, Human BCMA, TPP208; experiment: SPR (Biacore T200), single-cycle kinetics, antibody captured on anti-human IgG, antigen injected; sensorgram of sample stored at pH 6, 40 C compared with the non-stressed standard
Experimental: as §1, §2, §3

Human CD3ED, TPP401 [7] = molecular target: T4, Human CD3ED, TPP401; experiment: as above
Experimental: as §1, §2, §3

Human BCMA, TPP208 [8] = molecular target: T3, Human BCMA, TPP208; experiment: SPR (Biacore T200), single-cycle kinetics, antibody captured on anti-human IgG, antigen injected; sensorgram of sample stored at pH 8, 40 C compared with the non-stressed standard
Experimental: as §1, §2, §3

Human CD3ED, TPP401 [9] = molecular target: T4, Human CD3ED, TPP401; experiment: as above
Experimental: as §1, §2, §3

Human BCMA, TPP208 [10] = molecular target: T3, Human BCMA, TPP208; experiment: SPR (Biacore T200), single-cycle kinetics, antibody captured on anti-human IgG, antigen injected; sensorgram of sample stored at pH 6 with tert-butyl peroxide, 40 C compared with the non-stressed standard
Experimental: as §1, §2, §3

Human CD3ED, TPP401 [11] = molecular target: T4, Human CD3ED, TPP401; experiment: as above
Experimental: as §1, §2, §3

[12] = molecular target: T2, BCMA on cells (JEKO cells, plasmablasts); experiment: cell-based or functional assay; remark: listed apart in the source
[13] = molecular target: T2, BCMA on cells (JEKO cells, plasmablasts); experiment: cell-based or functional assay; remark: listed apart in the source

Binder	Kd (BCMA)	EC50 for JEKO cell killing (nM), T cell-mediated, annexin V, 20 h, T:E 1:2 [1]	EC50 for BM plasmablast killing (nM), bone marrow mononuclear cells, 24 h [2]	EC50 PB killing (nM), AAV-1 (n = 1) [3]	pH 4 SPR % similarity-BCMA (Human BCMA, TPP208 [4])	pH 4 SPR % similarity-CD3 (Human CD3ED, TPP401 [5])	pH 6 SPR % similarity-BCMA (Human BCMA, TPP208 [6])	pH 6 SPR % similarity-CD3 (Human CD3ED, TPP401 [7])	pH 8 SPR % similarity-BCMA (Human BCMA, TPP208 [8])	pH 8 SPR % similarity-CD3 (Human CD3ED, TPP401 [9])	pH 6-TBP SPR % similarity-BCMA (Human BCMA, TPP208 [10])	pH 6-TBP SPR % similarity-CD3 (Human CD3ED, TPP401 [11])	also measured
Mab101 (bispecific antibody, human IgG1, L234A L235A, also called BCMA TCE; BCMA T cell engager) heavy 1: not shown heavy 2: not shown light 1: not shown light 2: EVQLLESGGGLVQPGGSLRLSCAASGFTFSTYAMNWVRQAPGKGLEWVSRIRSKYNNYATYYADSVKGRFTISRDDSKNTLYLQMNSLRAEDTAVYYCVRHGNFGNSYVSWFAYWGQGTLVTVSSASVAAPSVFIFPPSDEQLKSGTASVVCLLNNFYPREAKVQWKVDNALQSGNSQESVTEQDSKDSTYSLSSTLTLSKADYEKHKVYACEVTHQGLSSPVTKSFNRGEC	1100 pM	5.72 nM	0.266 nM	0.236 nM	100%	99.9%	100%	100%	99.9%	71.5%	82.5%	75.3%	EC50 PB killing (nM), healthy volunteers (n = 2) [3]: 0.257 nM
83A10-TCBcv (bispecific antibody, human IgG1, kappa, L234A L235A) heavy 1: not shown heavy 2: not shown light 1: not shown light 2: EVQLLESGGGLVQPGGSLRLSCAASGFTFSTYAMNWVRQAPGKGLEWVSRIRSKYNNYATYYADSVKGRFTISRDDSKNTLYLQMNSLRAEDTAVYYCVRHGNFGNSYVSWFAYWGQGTLVTVSSASVAAPSVFIFPPSDEQLKSGTASVVCLLNNFYPREAKVQWKVDNALQSGNSQESVTEQDSKDSTYSLSSTLTLSKADYEKHKVYACEVTHQGLSSPVTKSFNRGEC	–	–	–	–	99.4%	100%	100%	99.9%	90.8%	57.5%	72%	59.7%	–
22-TCBcv (bispecific antibody, human IgG1, kappa, L234A L235A) heavy 1: not shown heavy 2: EVQLLESGGGLVQPGGSLRLSCAASGFTFSDNAMGWVRQAPGKGLEWVSAISGPGSSTYYADSVKGRFTISRDNSKNTLYLQMNSLRAEDTAVYYCAKVLGWFDYWGQGTLVTVSSASTKGPSVFPLAPSSKSTSGGTAALGCLVEDYFPEPVTVSWNSGALTSGVHTFPAVLQSSGLYSLSSVVTVPSSSLGTQTYICNVNHKPSNTKVDEKVEPKSCDKTHTCPPCPAPEAAGGPSVFLFPPKPKDTLMISRTPEVTCVVVDVSHEDPEVKFNWYVDGVEVHNAKTKPREEQYNSTYRVVSVLTVLHQDWLNGKEYKCKVSNKALGAPIEKTISKAKGQPREPQVCTLPPSRDELTKNQVSLSCAVKGFYPSDIAVEWESNGQPENNYKTTPPVLDSDGSFFLVSKLTVDKSRWQQGNVFSCSVMHEALHNHYTQKSLSLSPGK light 1: EIVLTQSPGTLSLSPGERATLSCRASQSVSSYYLAWYQQKPGQAPRLLISGAGSRATGIPDRFSGSGSGTDFTLTISRLEPEDFAVYYCQQYGYPPDFTFGQGTKVEIKRTVAAPSVFIFPPSDRKLKSGTASVVCLLNNFYPREAKVQWKVDNALQSGNSQESVTEQDSKDSTYSLSSTLTLSKADYEKHKVYACEVTHQGLSSPVTKSFNRGEC light 2: EVQLLESGGGLVQPGGSLRLSCAASGFTFSTYAMNWVRQAPGKGLEWVSRIRSKYNNYATYYADSVKGRFTISRDDSKNTLYLQMNSLRAEDTAVYYCVRHGNFGNSYVSWFAYWGQGTLVTVSSASVAAPSVFIFPPSDEQLKSGTASVVCLLNNFYPREAKVQWKVDNALQSGNSQESVTEQDSKDSTYSLSSTLTLSKADYEKHKVYACEVTHQGLSSPVTKSFNRGEC	–	–	–	–	84.8%	99.6%	99.8%	99.5%	95.8%	59.5%	71.9%	58.5%	–
CC-93269 (bispecific antibody, human IgG1, kappa, L234A L235A, also called 42-TCBcv; BCMA TCE) heavy 1: not shown heavy 2: EVQLLESGGGLVQPGGSLRLSCAASGFTFSDNAMGWVRQAPGKGLEWVSAISGPGSSTYYADSVKGRFTISRDNSKNTLYLQMNSLRAEDTAVYYCAKVLGWFDYWGQGTLVTVSSASTKGPSVFPLAPSSKSTSGGTAALGCLVEDYFPEPVTVSWNSGALTSGVHTFPAVLQSSGLYSLSSVVTVPSSSLGTQTYICNVNHKPSNTKVDEKVEPKSCDKTHTCPPCPAPEAAGGPSVFLFPPKPKDTLMISRTPEVTCVVVDVSHEDPEVKFNWYVDGVEVHNAKTKPREEQYNSTYRVVSVLTVLHQDWLNGKEYKCKVSNKALGAPIEKTISKAKGQPREPQVCTLPPSRDELTKNQVSLSCAVKGFYPSDIAVEWESNGQPENNYKTTPPVLDSDGSFFLVSKLTVDKSRWQQGNVFSCSVMHEALHNHYTQKSLSLSPGK light 1: EIVLTQSPGTLSLSPGERATLSCRASQSVSDEYLSWYQQKPGQAPRLLIHSASTRATGIPDRFSGSGSGTDFTLAISRLEPEDFAVYYCQQYGYPPDFTFGQGTKVEIKRTVAAPSVFIFPPSDRKLKSGTASVVCLLNNFYPREAKVQWKVDNALQSGNSQESVTEQDSKDSTYSLSSTLTLSKADYEKHKVYACEVTHQGLSSPVTKSFNRGEC light 2: EVQLLESGGGLVQPGGSLRLSCAASGFTFSTYAMNWVRQAPGKGLEWVSRIRSKYNNYATYYADSVKGRFTISRDDSKNTLYLQMNSLRAEDTAVYYCVRHGNFGNSYVSWFAYWGQGTLVTVSSASVAAPSVFIFPPSDEQLKSGTASVVCLLNNFYPREAKVQWKVDNALQSGNSQESVTEQDSKDSTYSLSSTLTLSKADYEKHKVYACEVTHQGLSSPVTKSFNRGEC	140 pM	2.79 nM	0.0201 nM	0.01 nM	–	–	–	–	–	–	–	–	EC50 for plasmablast killing in AAV, PBMC, 24 h [12]: 7 pM; EC50 for plasmablast killing in RA, PBMC, 24 h [12]: 1 pM; EC50 for plasmablast killing in SLE (n=5), PBMC, 24 h [12]: 10 pM; EC50 for plasmablast killing in healthy volunteers (n=12), PBMC, 24 h [12]: 5 pM; EC50 PB killing (nM), healthy volunteers (n = 6) [3]: 0.029 nM; Plasmablast depletion EC50 (nM), PBMC from healthy volunteers, soluble BCMA 0 ng/ml [13]: 0.005 nM; Plasmablast depletion EC50 (nM), PBMC from healthy volunteers, soluble BCMA 16.8 ng/ml [13]: 0.025 nM; Plasmablast depletion EC50 (nM), PBMC from healthy volunteers, soluble BCMA 33.6 ng/ml [13]: 0.13 nM; Plasmablast depletion EC50 (nM), PBMC from healthy volunteers, soluble BCMA 67.6 ng/ml [13]: 0.32 nM
